“Also recorded” adds a separate entry of the source.
What was measured:
[1] = target: T1, recombinant human TLR3 extracellular domain (R&D Systems) (human, UniProt O15455 27-711); assay: SPR (Biacore T100), rhTLR3 immobilised on CM5 chip, bivalent affinity, pH 7.2, mean of 2 or 3 experiments
T1 construct: also called rhTLR3; human rec TLR3; not shown: His tag (R&D #1487-TR)

[2] = target: T1, recombinant human TLR3 extracellular …; assay: SPR (Biacore T100), rhTLR3 immobilised on CM5 chip, bivalent affinity, pH 5.6, mean of 2 or 3 experiments
Procedure: (a) General Biacore T100 methods. SPR measurements were performed on a Biacore T100 apparatus (Biacore GE Healthcare) at 25° C. In all Biacore experiments HBS-EP+ buffer (Biacore GE Healthcare) or 10 mM sodium acetate pH 5.6, 150 mM NaCl, 0.05% P20 served as running buffer and sensorgrams were analyzed with Biaevaluation 4.1 and Biacore T100 Evaluation software. Recombinant human and mouse TLR3 were purchased from R&D Systems. (b) Protein immobilization. Recombinant TLR3 protein was immobilized covalently to carboxyl groups in the dextran layer of a Biacore Series 5 Sensor Chip CM5 (chip). The chip surface was activated with EDC/NHS (0.2M N-ethyl-N′-(3-dimethylaminopropyl) carbodiimidehydrochloride, 0.05M N-hydroxysuccinimide (Biacore GE Healthcare)). […] Deactivation of the remaining activated groups was performed using 100 mM ethanolamine pH 8 (Biacore GE Healthcare). (c) Antibody binding analysis was run using HBS-EP+ (neutral pH). Antibodies at a concentration of 10 μg/ml were injected for 2 min at a constant flow rate of 10 μl/min over the immobilized proteins and allowed to dissociate for 3 min before regeneration by a ten second injection of 10 mM NaOH, 500 mM NaCl regeneration buffer. Blank correction was performed on line by co-injecting the soluble antibodies onto the reference dextran flow cell. (d) Competition assay in acidic buffer (pH 5.6). […]

TLR3 [3] = target: T2, TLR3 (Homo sapiens, UniProt O15455); assay: Myeloid DC (MdDC) secretion and expression inhibition test; format: cell-based; design: Myeloid DC (MdDC) were obtained from PBMC by isolating PBMC from normal healthy human donors; endogenous in cells; host or cells: human monocyte-derived DC (CD14+ monocytes cultured with GM-CSF and IL-4); settings: polyAU
Procedure: Myeloid DC (MdDC) were obtained from PBMC by isolating PBMC from normal healthy human donors. Monocytes were purified from PBMC using positive selection with human CD14 microbeads (Miltenyi Biotech) following general instructions. Monocytes were further derived into DC (MdDC) by 5-6 days incubation in human GM-CSF (Leucomax, SP) and human IL-4 (R&D Systems) at respectively 200 ng/ml and 20 ng/ml.
The resulting MdDC were then seeded at 10^6 cells/ml, in duplicate, in flat bottom 96-well plates. Cells were activated for 20 hours in a final volume of 200 μl, together with the anti-TLR3 antibodies at the indicated concentrations. Increasing amounts of polyAU were added to the wells to obtain a dose effect read-out at the dose and timepoint as indicated.
Supernatants were collected after 20 h of stimulation, frozen at −20° C., and further assayed for IL-6 and IP-10 using Enzyme-linked immunosorbent assay. Cells were then harvested, stained for activation markers CD86 (with a.huCD86 mouse, IgG1, FITC, BD Biosciences, ref 555657), with detection using FACSCanto™ flow cytometer (BD Biosciences).
Myeloid DC (MdDC) secretion inhibition test is performed according to the section titled Materials and Methods.

TLR3 [4] = target: T2, TLR3; assay: SPR competition assay with polyAU in acidic buffer; format: binding; design: purchased R&D Systems; settings: pH 5.6
Procedure: (a) General Biacore T100 methods. SPR measurements were performed on a Biacore T100 apparatus (Biacore GE Healthcare) at 25° C. In all Biacore experiments HBS-EP+ buffer (Biacore GE Healthcare) or 10 mM sodium acetate pH 5.6, 150 mM NaCl, 0.05% P20 served as running buffer and sensorgrams were analyzed with Biaevaluation 4.1 and Biacore T100 Evaluation software. Recombinant human and mouse TLR3 were purchased from R&D Systems. (b) Protein immobilization. Recombinant TLR3 protein was immobilized covalently to carboxyl groups in the dextran layer of a Biacore Series 5 Sensor Chip CM5 (chip). The chip surface was activated with EDC/NHS (0.2M N-ethyl-N′-(3-dimethylaminopropyl) carbodiimidehydrochloride, 0.05M N-hydroxysuccinimide (Biacore GE Healthcare)). […] Deactivation of the remaining activated groups was performed using 100 mM ethanolamine pH 8 (Biacore GE Healthcare). (c) Antibody binding analysis was run using HBS-EP+ (neutral pH). Antibodies at a concentration of 10 μg/ml were injected for 2 min at a constant flow rate of 10 μl/min over the immobilized proteins and allowed to dissociate for 3 min before regeneration by a ten second injection of 10 mM NaOH, 500 mM NaCl regeneration buffer. Blank correction was performed on line by co-injecting the soluble antibodies onto the reference dextran flow cell. (d) Competition assay in acidic buffer (pH 5.6). Flow rate was set to 10 μl/min, the first antibody at a concentration of 50 μg/ml (or polyAU at 100 μg/ml) was injected for 2 min, 3 times successively in order to saturate the rhTLR3 surface. The second antibody (or polyAU at 100 μg/ml when the polyAU was added after first antibody) was then injected for 2 min also at 50 μg/ml and allowed to dissociate for 3 min before regeneration by a 15 second injection of 10 mM NaOH, 500 mM NaCl regeneration buffer. Blank correction was also performed on line and the curve using the saturating antibody (or neucleic acid) followed by an injection of buffer subtracted to remove the signal due to the dissociation of the first complex. The resulting signal was compared to that obtained by the injection of the second antibody directly onto the rhTLR3 surface.
Competition assays were conducted according to the methods described for SPR, item d) at pH 5.6.
Buffer (followed by polyAU) is represented in the lower line, while 31C3 followed by polyAU is in the upper line.

TLR3 [5] = target: T2, TLR3; assay: 293T-TLR3-ISRE luciferase reporter gene assay; format: cell-based; design: host or cells: 293T (ATCC #CRL-1573), stably carrying pISRE-luc; settings: dsRNA TLR3 agonist
Text: A reporter gene assay using as promoter ISRE (IFN-stimulated response element) and as reporter gene and protein luciferase was set up. A 293T cell line (ATCC, #CRL-1573) was stably transfected with pISRE-luc plasmid (#219089—Stratagene), further selected by cloning as inducing optimal response to IFN-alpha stimulation and referred to as control 293T-ISRE. This cell line was further stably transfected with pUNO-humanTLR3 plasmid (#puno-htlr3—InVivogen) or pUNO-mouseTLR3 plasmid (#puno-mtlr3—InVivogen) and referred to as 293T-TLR3-ISRE and 293T-mTLR3-ISRE respectively. On day 0, cells are seeded at 4×10^5 cells/mL in complete culture medium in 96-well culture plate (100 μl/well). Cells are first incubated at 37° C. for 20 hours, then 50 μL of medium are discarded and cells are activated with 100 μL/well final of increasing amounts of polyAU together with various concentrations of anti-TLR3 antibodies. Cells incubated with fresh medium will be used as background luciferase activity. Cells are incubated at 37° C. for 6 hours. 100 μL of freshly thawed Steady Glo (Promega) are added to each well, plates were incubated 10 min at RT in the dark and the light emitted in each well is quantified as Count Per Second (CPS) on a gamma-counter (TopCount) apparatus.
Antibodies were tested for inhibition of TLR3 signaling in a luciferase based reporter gene activity (293T-TLR3-ISRE). […] Briefly, dsRNA TLR3 agonists were used to induce TLR3 signaling in the reporter assay in the presence of anti-TLR3 antibodies, and TLR3 signaling was assessed.
In a further set of experiments, 293-huTLR3 cells were incubated with different concentrations of the anti-TLR3 mAbs for 1 to 2 hours (see FIG. 1A; mAb concentration is represented in axis in μg/ml on a logarithmic scale) followed by the addition to the medium of the TLR3 agonist polyAU at a concentration of 300 μg/ml. Luciferase expression was measured after 6 h. […]
Similarly the kinetics of inhibition of the antibodies was evaluated in 293T-TLR3 luciferase assay. […] Luciferase expression was measured at 6 h post poly(A:U) addition. […]

TLR3 [6] = target: T2, TLR3; assay: IP-10 production by donor PBMC in response to dsRNA and drug combinations; format: cell-based; settings: mAb 50 μg/ml
Procedure: IP-10 production was assessed in human donors in response to polyAU (IPH3102), believed to be a specific agonist of TLR3, or pIC, believed to be an agonist of TLR3 as well as other dsRNA receptors such as RIG-I and MDA-5. Fresh PBMC were isolated from whole blood of two independent donors. […] Cells were incubated 1 hr at 37° C. prior addition of 300 μg/ml IPH3102 or 30 μg/ml poly(I:C). Cells were incubated for 24 additional hours at 37° C. Supernatant were then harvested to quantify IP10 production by ELISA. Cells were then recovered, stained with 7-AAD and analyzed by flow cytometry (FACS) to evaluate potential toxic effects of any drugs.

TLR3 [7] = target: T2, TLR3; assay: SPR (Biacore) bivalent affinity on immobilized TLR3; format: binding; design: purchased R&D Systems; settings: neutral pH; own vs commercially available antibodies
Procedure: (a) General Biacore T100 methods. SPR measurements were performed on a Biacore T100 apparatus (Biacore GE Healthcare) at 25° C. In all Biacore experiments HBS-EP+ buffer (Biacore GE Healthcare) or 10 mM sodium acetate pH 5.6, 150 mM NaCl, 0.05% P20 served as running buffer and sensorgrams were analyzed with Biaevaluation 4.1 and Biacore T100 Evaluation software. Recombinant human and mouse TLR3 were purchased from R&D Systems. (b) Protein immobilization. Recombinant TLR3 protein was immobilized covalently to carboxyl groups in the dextran layer of a Biacore Series 5 Sensor Chip CM5 (chip). The chip surface was activated with EDC/NHS (0.2M N-ethyl-N′-(3-dimethylaminopropyl) carbodiimidehydrochloride, 0.05M N-hydroxysuccinimide (Biacore GE Healthcare)). […] Deactivation of the remaining activated groups was performed using 100 mM ethanolamine pH 8 (Biacore GE Healthcare). (c) Antibody binding analysis was run using HBS-EP+ (neutral pH). Antibodies at a concentration of 10 μg/ml were injected for 2 min at a constant flow rate of 10 μl/min over the immobilized proteins and allowed to dissociate for 3 min before regeneration by a ten second injection of 10 mM NaOH, 500 mM NaCl regeneration buffer. […]
Binding to TLR3 was determined at neutral (pH 7.2) and acid (pH 5.6) conditions, and KD values were calculated. […]

| Molecule | Kd [1] [nM] | Kd [2] [nM] | TLR3-mediated CD83/CD86 expression (TLR3 [3]) | TLR3-mediated cytokine/chemokine secretion (IP-10, IL-6) (TLR3 [3]) | antibody binding to TLR3 chip previously incubated with polyAU (TLR3 [4]) | inhibition of TLR3 signaling (TLR3 [5]) | IP-10 production in response to polyAU (TLR3 [6]; donor 2, IPH3102 300 μg/ml) | IP-10 production in response to polyIC (TLR3 [6]; donors 1 and 2, poly(I:C) 30 μg/ml) | binding affinity for TLR3 compared (TLR3 [7]) |
| --- | --- | --- | --- | --- | --- | --- | --- | --- | --- |
| antibody 29H3 (antibody, V domains shown, also called 29H3.7; CNCM I-4187) VH: DVQLQESGPDLVKPSQSLSLTCTVTGYSITSGYSWHWIRQFLGNKLEWMGYIHYSGITNYNPSLRSRISFTRDTSKNQFFLQLNSVTTEDTATYYCARDGYYGMDYWGQGTSVTVS VL: DIVMTQSQKFMSTSVGDRVSITCKASQNVRTSVAWYQQKPGQSPKALIYLASNRHTGVPDRFTGSGSGTDFTLTVSNIQSEDLADYFCLQHWNYPYTFGGGTKLEIK | 0.0474 | 0.011 | effectively downregulated TLR3-mediated CD83/CD86 expression | abrogated TLR3-mediated cytokine/chemokine secretion, to a similar extent as full length antibodies |  |  |  |  |  |
| 34A3: anti-human TLR3 monoclonal antibody; VH SEQ ID NO: 34, VL SEQ ID NO: 35 (antibody, listed as Mus musculus, V domains shown, SIGNAL (1)..(19); SIGNAL (1)..(22)) VH: MEWRWIFLFLLSGTTGVHSEIQLQQSGPELVKPGASVKVSCKASGYVFTTYSIYWVKQSHGKSLEWIGYIDPYNGDTSYNQKFKGKATLTVDKSSSTAYMHLNSLTSEDSTVYYCAREGNYYGYFDYWGQGTTLTVS VL: MDFQVQIFSFLLMSASVIMSRGQIVLTQSPALMSASPGEKVTMTCSASSSVSYMFWYQQKPRSSPKPWIYLTSNLASGVPARFSGSGSGTSYSLTISSMEAEDAATYYCQQWTGNPPTFGGGTKLEIK |  |  |  |  | able to bind TLR3 even in the presence of polyAU | strongly inhibited TLR3 signaling in a dose dependent fashion; also recorded: enhanced inhibition effect at low concentrations | substantially reduce IP-10 production | substantially reduce IP-10 production |  |
| 29H3: anti-human TLR3 monoclonal antibody, IgG1; VH SEQ ID NO: 10, VL SEQ ID NO: 11; CNCM I-4187 (antibody, listed as Mus musculus, V domains shown, SIGNAL (1)..(18); SIGNAL (1)..(20), anti-human TLR3 monoclonal antibody, IgG1; CNCM I-4187) VH: MRVLILLCLFTAFPGILSDVQLQESGPDLVKPSQSLSLTCTVTGYSITSGYSWHWIRQFLGNKLEWMGYIHYSGITNYNPSLRSRISFTRDTSKNQFFLQLNSVTTEDTATYYCARDGYYGMDYWGQGTSVTVS VL: MDFQTQVFVFVLLWLSGVDGDIVMTQSQKFMSTSVGDRVSITCKASQNVRTSVAWYQQKPGQSPKALIYLASNRHTGVPDRFTGSGSGTDFTLTVSNIQSEDLADYFCLQHWNYPYTFGGGTKLEIK |  |  | effectively downregulated TLR3-mediated CD83/CD86 expression | abrogated TLR3-mediated cytokine/chemokine secretion | able to bind TLR3 even in the presence of polyAU |  |  |  | significantly better |

Reference: patent US20140065154A1, “TLR3 BINDING AGENTS” (INNATE PHARMA, priority 2011, published 2014)
